Here are results for 41 sequences from the nanobody polyreactivity screen of Harvey et al. (2022).

The nature of the data set: yeast display, Sf9 membrane polyspecificity reagent, FACS + sequencing; frameworks hold sequencing errors. The method in brief: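 Nanobodies from a synthetic yeast display library (Saccharomyces cerevisiae BJ5465), induced 36–48 hours with galactose, were stained 1 hour at 4 °C with 10% biotinylated, detergent-solubilized Sf9 membrane reagent, enriched on streptavidin microbeads, then FACS-sorted. Anti-HA (expression) and streptavidin (reagent binding) fluorescence set low and high (top ~1%) gates. Polyreactivity labels come from the gate of origin. Genes were colony-PCR amplified, MiSeq 2 × 250 sequenced and filtered by CDR length.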
“QVQLVESGGGLVQAGGSLRLSCAASGSTFTWNAMGWYRQAPGKERELVAAISGDGGSTYYADSVKGRFTISRDNAKNTVYLQMNSLKPEDTAVYYCAASSAHIFSYRYNFWGQGTQVTVSS”: the “polyreactivity (PSR sort gate)” value is on record as “low polyreactivity”.
Consider “QVQHVESGGGLVQAGGSLRLSCAASGITFSFYAMGWYRQAPGKERELVAAINGRGGRTYYADSVKGRFTISRDNAKNTVYLQMNSLKPEDTAVYYCAAVVWSTDYDYWGQGTQVTVSS”, for which the “polyreactivity (PSR sort gate)” value is on record as “low polyreactivity”.
In the case of “QVQLVDSGGGIVQAGGSLRLSCAASGRIFKLYAMGRYRQAPGKERELVAAISKSGGNTYADSVKGRFTISRDNAKNSVYLQMNSLKPEDTAVYYCAATVQSTSDPFDYWGQGTQVTVSS”, the “polyreactivity (PSR sort gate)” value is listed as “low polyreactivity”.
Next, “QVQLEESGGGLVQAGGSLRLSCAASGLTLGRYAMGWYRPAPGKERELVAVITGGGSTNYADSVKGRFTISRDNAKNTVYLQMNSLKPEDTAVYYCAVRGGIFQTLSTWYRYYYWGQGTQVTVSS”: “high polyreactivity”.
Next, “QVQLVESGGGLVQAGGILRLSCAASGSIVSYYDMGWYRQAPGKERELVAAITYTGGSTYYADSVKGRFTISRDNAKNTVYLQMNSLKPEDTEVYYCAAQWTIYPLFNSWGQGNQVTVSS”: “low polyreactivity”; “QDQLVESGGGLVQAGGSLRLSCAASGRIFTGNAMGWYRQAHGKERELVAAISASGSSTYYADSVKGRFTISRDNAKNTVYLQMNSLKPEDTAVYYCAADGWYGYYYWGQGTLVTVSS”: “high polyreactivity”; “QVQLVESGGGLVQAGGSLRLSCAASGRTFRAYTMGWYRQAPGKERELVAAISTPGGSTYYADSVKGRFTISRDNAKNTVYLQMNSLKPEDTAVYYCAAGTFYYWLSYDYWGQGTQVTVSS”: “low polyreactivity”.
Next, “QVQLVESGGGLVQAGGSLRLRCGASGSTFGIYAMGWYRQAPGKERELVAAITLRTDSTYYADSVKGRFTISRDNAKNTVYLQMNSLKPEDTAVYYCARRYRYGYDYWGQGTQVSVSS”: “low polyreactivity”; “QVQLVESGGGLVQAGGSLRLSCAASGFTFHRNAMGWYRQAPGKERELVAAISTRGGSTAYADSVKGRFTISRDNAKNTVYLQMNSLKPEDTAVYYCAARVRVTGTYYTKYDYWGQGTQVTVSS”: “high polyreactivity”.
Regarding “QVQLVESGGGLLQAGGSLRLSCAASGSIFGYNAMGWYRQAPGKERELVAAISYSGGSTYYADSVKGRFPISRDNAKNTVYLQMNSLKPEDTAVYYCAKAGRYANLPYGYWGQGTQVTVSS”, the “polyreactivity (PSR sort gate)” value is on record as “high polyreactivity”.
On to “QVQLVESGGGLVQAGGSLRLSCAASGLIFQRNTMGWYRQAPGKERELVAAISRSGGSTYYADSVKGRFTISRDNAKNTVYLQMNSLKPEDTAVYYCAALIFRHRGKDDDYWGQGTQVTVSS”, for which the “polyreactivity (PSR sort gate)” value was “high polyreactivity”.
Take “QVQLVDSGGGLVQAGGSLRLSCAASGSTFGPYAMGWYRQAPGKERELVAAISGSGGTTYYADSVKGRFTMSRDNSKNTVYLQMNSLKPEDTAVYDCAAYPRWTYWGYVERYYWGQGTQVTVSS”: the “polyreactivity (PSR sort gate)” value was “high polyreactivity”.
Next, “QVQLVESGGGLVQAGGSLRLSCSASGYTFPLYAMGWYRQAPGKERELVADINIGGASTYYADSVKGRFTISRDNAKNTVYLQMNSLKPEDTAVYYCAIQYYDGYFPTFEYDYWGQGTQVTVSS”: “low polyreactivity”; “QVQLVESGGGLVQAGGSLRLSCAASVRTFKYYAMGWYRQAPGKERELVAAISWSGSSTYYADSVKGRFTISRDNAKNTVDLPMNSLKPEDPAVYYCAAATYRQFTGTYDYWGQGTQVTVSS”: “high polyreactivity”; “QVQLVESGGGLVQAGGSLRLSCAASGRIFRFYAMGWYRQAPGKERELVAAITRNVGSTFYADSVKGRFTISRDNAKNTVYLQMNSLKPEDTAVYYCAAESDYYYRYTFDYWGQGTLVTVSS”: “low polyreactivity”.
For “QVQLVESGGGLVQAGGSLRISCAASGSIFRGNAMGWYRQAPGKERELVAAISKSGGSTYYADSVKGRITISRDNAKNTVYLQMNSLKPEDTAVYYCAARTTYLYGMYYWGQGTQVTVSS” the value was “low polyreactivity”.
Next, “QVQLLESGGGLVQAGGSLRLSCAASGRNFGVNAMGWYRQAPGKERELVAVISSGGSTYYADSVKGRFTISRDNAKNTVFLQMNSLKPEDTAVYYCAAGNLPDYDYWGQGTQVTVSS”: “low polyreactivity”; “QVQIVESGGGLVQAGGSHRLSCAASGSTFDAYAMGWYRQEPGKEREMVAAISTRGGRTYYADSVKGRFTISRDNAKNTVYLQMNSLKPEDTAVYYCNAVVARVNVRGTPAFDYWGQGTQVTVSS”: “high polyreactivity”; “QVQLVESGGGLVQAGGSLRLSCAASGFIFPWYAMGWYRQAPGKERELVAIISWDTGSTYYADSVKGRFTISRDNAKNTVYLQMNSLKPEDTAVYYCAAQQPYAGLYYWGQGTQVTVSS”: “low polyreactivity”.
With “QVQLVESGGGLVQAGGSLRLSCAASGFTFFTYAMGWYRQAPGKERELVAAIRWRGSTTYYADSVKGRFTISRDNAKYTVYLQMNSLKPEDTAVYYCAAELRFRQTGLAYWGDYWGQGTQVTVSS”, the “polyreactivity (PSR sort gate)” value was “high polyreactivity”.
As for “QVQRVESGGGLVQAGGSLRLSCAASGRTLARNAMGWYRQAPGKERELVASINGRTTRTYYADSVKGRFTISRDNAKNTVYLQMNSLKPEDTAVYYCAVKDRYSFRYDYWGQGTQVTVSS”, the “polyreactivity (PSR sort gate)” value is recorded as “high polyreactivity”.
Next, “QVQLEESAGGLVQAGGSLRLICADSARILRQYARGWYRQAPGKERELVAAITSSGGSTYYADSVKGRFTISRDNEKNTVYLQMNSMKPEDTAVYYCNARLRGAKYDYWGQGTQVSVSS”: “high polyreactivity”; “QVQLVESGGGIVQAGGSLRLSCAASGSIDWNAKGWYRQAPGKEREFVAAISSSGGRTSYADSVKGRFTISRDNAKNTVYLEMNSLKPEDTAVYYGAAAGSYDGDRYYYWGQGTQVTVSS”: “high polyreactivity”.
Next, “QVQLVESGGGLVQAGGSLRLSCAASGRIFGAYAMGWYRQAPGKERELVAAITSGGSTYADSVKGRFTISRDNAKNTVYLQMNSLKPEDTAVYYCAADLITRSDSWWTGWIWEYDYWGQGTQVTVSS”: “low polyreactivity”; “QVQLLESGGGLVQPGGSLRLSCAASGSIFDGYAMVWYRQAPGKERELVAAISSSGGSTYYADSVKGRYTISRDTAKNTVYLQMNSLQREDSAVYYCAARFPWRGGVKYSYYFQHDYWGQGTQVTVSS”: “high polyreactivity”.
Turning to “QVQLVESVGGLDQAGGSLPVSCAASGLTFTGYTMGWYRQAPWKERELVATISGSGGNTDYADSVKARFTISRDKAKNTVDLQMNSLKPEDTAVYYCASRRSGPLVLYYYWGQGTQVTVSS”, the “polyreactivity (PSR sort gate)” value was “low polyreactivity”.
As for “QVQLVESGGGLVQAGGSLRLSCAASGSIFYYYSMGWYRQAPGKERELVATISSTTSTYADSVKGRFTISRDNAKNTVYLQMNSLKPEDTAVYYCSYDYWGQGTQVTVSS”, the “polyreactivity (PSR sort gate)” value is “low polyreactivity”.
Next, “QVQLVESGGGLVQAGGSLRLSCAASGRTFERNAMGWYRQAPGKERELVAAITSGDGTSYADSVKGRFTISRDNAKNTVYLQMNSLKPEDTAVYYCAVSKGVFLVRGYAYHVGYWGQGTQVTVSS”: “low polyreactivity”; “QVQLVESGGGLVQAGGSLRLSCAASGRIFNSYAMGWYRQAPGKERELVAAINWTDVSTYYADSVKGRFTISRDNAKNTVYLQMNSLKPEDTAVYYFAAVRWGSYTLSDDYWGQGTQVTVSS”: “low polyreactivity”.
As for “QVQLVESGGGLVKAGGSLRLSCAASGSTFTYYAMGWYRQAPGKERELVARITWTGGRTYYADSVKGRFTISRGNAKNTVYLQMNSLKPEDTAVNYCNALPYFYETQYDYWGQGTQVTVSS”, the “polyreactivity (PSR sort gate)” value is listed as “low polyreactivity”.
For “QVQLVESGGGIVQAGGSLRLSCAASGIIFDVYAMGLYRQAPGTERELVAAISKRGGRTYYADSVKWRFTISRDNAKNTVYLQMNSLKPEDTAVYYCAADGQYKHFDYWGQGTQVTVSS” the value was “high polyreactivity”.
For “QVQLVESGGGLVQAGGSLRLSCAASGITFNYYAMGWYRQAPGKERELVAAISLSGGRTRYADSVKGRFTISRDNAKNTVYLQMNSLKPEDTAVYYCAAYSFRYVPWPDGMGYWGQGTQVTVSS” the value was “high polyreactivity”; for “QVQLVESGGGLVQAGGSLRLSCAASGRTFIAYAMGWYRPAPGKERALVAAITSSGGSTYYADSVKGRFTISRDNAKNTVYLQMNSLKPEDTAVFYCATDIYESPYFYYSYYYWGQGTQVTVSS”, “low polyreactivity”.
As for “QVQLVESGGGLVQAGGSLRLSCAASGFTFTYYAMGWYRHAPGKERELVAAITNSGGTTYYADSVKGRFTISRDNAKNTVYLQMNSLKPEDTAVYYCAAVPYYVLARSFYRYGYWGQGTQVTVSS”, the “polyreactivity (PSR sort gate)” value is given as “low polyreactivity”.
Next, “QVQLVESGGGLVQAGGSLRLSCAASGSIFGGNAMGWYRQAPGKERELVATITSAGSTYYADSVKGRFTISRDNAKNTVYLQMNSLKPEDTAVYYCAADPTYYWRYYPTRLYVEYDYWGQGTQVTVSS”: “low polyreactivity”.
Regarding “QVQLVESGGGLVQAGGSLRLSCAASGLIFSYNAMGWYRQAPGKERELVAAISYSGGSTYYADSVKGRYTISRDNAKYTVYLQMNSLKPEDTAVYYCAAVLSPDFYYWGQGTQVTVSS”, the “polyreactivity (PSR sort gate)” value was “high polyreactivity”.
“QVQLEESGGGLVQAGGSLRLSCAASGRIFVSNDMGWYRQAPGKERELVAAITWSDDSTHYADSVKGRFTISRDYAKNTVYLQRNSVKPEDTAVYYCNKQRYYSTWRYDYWGQGTQVTVSS”: the “polyreactivity (PSR sort gate)” value is “low polyreactivity”.
For “QVQLVESGGGLVQAGGSLRLSCAASGRIFRWYTMGWYRQAPGKEREFVAAITWSDTSTSYADSVKGPFTISRDNAKNTVYLQMNSLKPEDTAVYYCAAPTHLHGHGNQNEFYYWGQGTQVTVSS” the value was “low polyreactivity”; for “QVQLVESGGGLVQAGGSLRLSCAASGRTIYYYAMGLYRQAPGKERELVAAISSSGSTTYYADSVKGRFTISRDNAKNTVYLQMNSLKPEDTAVYYCAASYVYRVDDDYWGLGTQVTVSS”, “low polyreactivity”; for “QVQLVESGGGLVQAGGSLRLSCAASGRTFYYYDMGWYRQAPGKERELVAAIRRSGGSTYYADSVKGRFTISRDNAKNTVYLQMNSLKPEDTAVYYCAAGRRYSGSYDYRGQGTQVTVSS”, “high polyreactivity”.
Consider “QVQLVESGGGLVQAGGSLRLSCAASGLIVQVYDMGWYRQAPGKEMELVAAISSGSNTNYADSVKGRFTISRDNAKNTVYLLMNSLKPEDTAVYYCAASWGYGALTPDMGYWGQGTQVTVSA”, for which the “polyreactivity (PSR sort gate)” value is “low polyreactivity”.
